Laboratory results: patent US20250263481A1 (SHIJIAZHUANG YILING PHARMACEUTICAL, published 2025)

Experiments:
[1] = target: human CLDN18.2 expressed on cells (human); assay: cell-based or functional assay
[2] = target: human CLDN18.2 expressed on cells (human); assay: cell-based or functional assay; remark: listed apart in the source
[3] = target: T1, human CLDN18.2 expressed on cells (human); assay: flow cytometry (geometric mean, Alexa Fluor 647 anti-human IgG Fc secondary) on CLDN18.2-expressing 293T cells
T1 construct: also called huCLDN18.2; CLDN18.2-expressing 293T cells
Method: (§1) CLDN18.2-expressing 293T cells and CLDN18.1-expressing 293T cells at a density of 2×10⁶ cells/ml in FACS buffer ([…]) were mixed with a dilution series ([…] in FACS buffer) of the chimeric antibodies, the reference antibody, or a IgG negative control (50 μL) in a 96-well V-bottom plate and incubated for 30 min on ice. After a wash with 200 μL/well FACS buffer, cells were resuspended in 30 μL/well secondary antibody Alexa Fluor® 647 AffiniPure Goat Anti-Human IgG, […] specific (Jackson, Cat. #109-605-098) and incubated for 20 min on ice. After three washes with 200 μL/well FACS buffer, cells were resuspended with 150 μl/well FACS buffer and subjected to FACS using BD LSR II Flow Cytometer (HTS). Geometric mean was used for data analysis and plots were made using Prism GraphPad.

[4] = target: T1, human CLDN18.2 expressed on cells; assay: cell-based or functional assay; remark: listed apart in the source
[5] = target: T1, human CLDN18.2 expressed on cells; assay: cell-based or functional assay; remark: listed apart in the source
[6] = target: T2, human CLDN18.1 expressed on cells (human, UniProt P56856 1-261); assay: flow cytometry (geometric mean, Alexa Fluor 647 anti-human IgG Fc secondary) on CLDN18.1-expressing 293T cells
T2 construct: also called huCLDN18.1; CLDN18.1-expressing 293T cells
Method: as §1

[7] = target: T1, human CLDN18.2 expressed on cells; assay: cell-based or functional assay; remark: listed apart in the source
[8] = target: T1, human CLDN18.2 expressed on cells; assay: KinExA 4000, antibody constant, CHO cells over-expressing huCLDN18.2 titrated
Method: A KinExA 4000 instrument was also used to measure binding affinity of the antibodies to surface protein of intact cells, i.e., CHO cells over-expressing huCLDN18.2. Concentration of the antibodies was held constant (CBP) and concentration of whole cells with surface protein were varied (titrant). Concentration of whole cells with surface proteins were diluted three-fold. Titrated cells were incubated with the constant binding partner (CBP). Once equilibrium was reached, the samples were centrifuged, the supernatants were recovered, and the free CBP was detected with a fluorescently labeled anti-CBP molecule.
To establish a more accurate Kd, two equilibrium curves were prepared and analyzed. One curve with low concentration of CBP at 100 pM (200 pM binding sites) and 10⁶ cells/mL with three-fold dilutions, and one curve with high concentration of CBP at 10 nM (20 nM binding sites) and 10⁶ cells/mL with three-fold dilutions. The KinExA 4000 measured the amount of unbound CBP in solution. Analysis was performed using Sapidyne Instruments n-Curve Analysis Software version 4.4.26.

[9] = target: T1, human CLDN18.2 expressed on cells; assay: flow cytometry (percent FITC-positive cells, GAH-FITC secondary) on CHO cells expressing huCLDN18.2
Method: CHO cells expressing huCLDN18.2 were used to assess the binding of the antibodies. Cells were seeded at 5×10⁵ cells per 100 μl into a well of a 96-well plate for each sample. Then, 100 μl of each serially diluted antibody was added to the cells, each dilution started at 40 µg/ml and was diluted 5-fold. Therefore, the final concentration of each antibody starts at 20 µg/ml followed by a 5-fold serial dilution. After 1 hour, the cells were washed twice and 100 μl of GAH-FITC (1:200 dilution) was added to each well. After 30 minutes, the cells were washed twice and resuspended in 120 μl of FACS buffer. The cells were analyzed via flow cytometry.
Unstained cells were used as a reference to set up overall target cell gating and to establish the FITC-negative populations, allowing us to establish the FITC-positive cell gate for each cell line. Additionally, the mean fluorescence intensity (MFI) of the entire population of cells was calculated to secondarily validate the FITC-positive results. The ratio of the gated positive cell number to the total live cell number is taken as the percentage of positive cells.

T2 sequence (P56856 whole entry): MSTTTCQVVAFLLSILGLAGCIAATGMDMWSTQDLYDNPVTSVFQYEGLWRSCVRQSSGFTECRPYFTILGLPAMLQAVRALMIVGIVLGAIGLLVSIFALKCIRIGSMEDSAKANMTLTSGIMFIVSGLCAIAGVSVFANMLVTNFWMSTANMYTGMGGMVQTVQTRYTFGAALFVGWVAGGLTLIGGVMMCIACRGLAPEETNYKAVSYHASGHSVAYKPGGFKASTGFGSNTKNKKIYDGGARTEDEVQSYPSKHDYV

CDC on KATOIII CLDN18.2 cells, LDH: EC50 [1] [nM]	ADCC on KATOIII CLDN18.2 cells, LDH: EC50 [2] [nM]	EC50 (read off the curve) [3] [µg/mL]	CDC on CT26 CLDN18.2 cells, LDH: EC50 [4] [nM]	ADCC on NCI-N87 CLDN18.2 cells, LDH: EC50 [5] [nM]	binding result [6]	ADCC, FACS: EC50 [7] [nM]	ADCC, LDH: EC50 [7] [nM]	Kd [8] [nM]	EC50 (read off the curve) [9] [µg/mL]	Binder	CDC on KATOIII CLDN18.2 cells, LDH: max (% cytotoxity) [1] [%]	ADCC on KATOIII CLDN18.2 cells, LDH: max (% cytotoxity) [2] [%]	CDC on CT26 CLDN18.2 cells, LDH: max (% cytotoxity) [4] [%]	ADCC on NCI-N87 CLDN18.2 cells, LDH: max (% cytotoxity) [5] [%]
4.76	0.14	~0.7	0.19	0.067	no binding (tested: about 30 ug/ml)					YL-G1-19-04 (antibody, human IgG1, kappa, Mouse/human chimeric IgG1 kappa, first generation) heavy: not shown light: DIVMTQSPSSLTVTAGEKVTLSCKSSQSLLNSGNQKNYLTWYQQRPGQPPKLLIYWASTRESGVPVRFTGSGSGADFTLTISSVQAEDLAVYFCQNAYFYPLTFGTGTKLELRRTVAAPSVFIFPPSDEQLKSGTASVVCLLNNFYPREAKVQWKVDNALQSGNSQESVTEQDSKDSTYSLSSTLTLSKADYEKHKVYACEVTHQGLSSPVTKSFNRGEC	48.3	15.4	59.2	12.6
~4.98	0.21	~0.6	0.24	0.13	no binding (tested: about 30 ug/ml)					YL-G1-19-03 (antibody, human IgG1, kappa, Mouse/human chimeric IgG1 kappa, first generation) heavy: not shown light: DIVMTQSPSSLTVTAGEKVTMSCKSSQSLLNSGNQKNYLTWYQQKPGQPPKLLIYWASTRESGVPDRFTGSGSGTDFTLTISSVQAEDLAIYYCQNNYFYPLTFGAGTRLELKRTVAAPSVFIFPPSDEQLKSGTASVVCLLNNFYPREAKVQWKVDNALQSGNSQESVTEQDSKDSTYSLSSTLTLSKADYEKHKVYACEVTHQGLSSPVTKSFNRGEC	67	16.7	62.2	15.2
1.95	0.16	~0.7	0.26	0.072	no binding (tested: about 30 ug/ml)	~0.224	0.3			YL-G1-19-02 (antibody, human IgG1, kappa, Mouse/human chimeric IgG1 kappa, first generation; also called YL-G1-02) heavy: not shown light: DIVMTQSPSSLTVTAGEKVTMSCKSSQSLLNSGNQKNYLTWYQQRPGQPPKLLIYWASTRESGVPVRFTGSGSGTDFTLTISSVQAEDLAVYYCQNAYIYPLTFGTGTKLELKRTVAAPSVFIFPPSDEQLKSGTASVVCLLNNFYPREAKVQWKVDNALQSGNSQESVTEQDSKDSTYSLSSTLTLSKADYEKHKVYACEVTHQGLSSPVTKSFNRGEC	35.4	19.9	73.4	16.8
2.4	0.021		0.12	0.0089				0.0131	~0.0003	YL-G2-D (antibody, human IgG1, kappa, Second generation, Fc-engineered form of YL-G1-19-04) heavy: QLQQSGPELEKPGASVKISCKASGYSFTGYKMNWVKQSNGESLEWIGNIDPYYGDTTYTQKFKGKATFTVDTSSSTAYMQLKSLTSEDSAVYFCARYNRGNTMDYWGQGTSVTVSSASTKGPSVFPLAPSSKSTSGGTAALGCLVKDYFPEPVTVSWNSGALTSGVHTFPAVLQSSGLYSLSSVVTVPSSSLGTQTYICNVNHKPSNTKVDKRVEPKSCDKTHTCPPCPAPELVGGPSVFLLPPKPKDTLMISRTPEVTCVVVDVSHEDPEVKFNWYVDGVEVHNAKTKPPEEQYNSTLRVVSVLTVLHQDWLNGKEYKCKVSNKALPAPIEKTISKAKGQPREPQVYTLPPSREEMTKNQVSLTCLVKGFYPSDIAVEWESNGQPENNYKTTPLVLDSDGSFFLYSKLTVDKSRWQQGNVFSCSVMHEALHNHYTQKSLSLSPGK light: DIVMTQSPSSLTVTAGEKVTLSCKSSQSLLNSGNQKNYLTWYQQRPGQPPKLLIYWASTRESGVPVRFTGSGSGADFTLTISSVQAEDLAVYFCQNAYFYPLTFGTGTKLELRRTVAAPSVFIFPPSDEQLKSGTASVVCLLNNFYPREAKVQWKVDNALQSGNSQESVTEQDSKDSTYSLSSTLTLSKADYEKHKVYACEVTHQGLSSPVTKSFNRGEC	49.2	18.4	71.8	18.6
~6.04	0.019		0.1	0.0078				0.0386	~0.0006	YL-G2-C (antibody, human IgG1, kappa, Second generation, Fc-engineered) heavy: QIQLVQSGPELRKPGETVKISCKASGFPFTTDGMSWVKQAPGKGLKWMGWINTYSGVPTYADDFKGRVAFSLETSASTAYLQIKNLKNEDTATYFCARFRRGNALDNWGQGTSVTVSSASTKGPSVFPLAPSSKSTSGGTAALGCLVKDYFPEPVTVSWNSGALTSGVHTFPAVLQSSGLYSLSSVVTVPSSSLGTQTYICNVNHKPSNTKVDKRVEPKSCDKTHTCPPCPAPELVGGPSVFLLPPKPKDTLMISRTPEVTCVVVDVSHEDPEVKFNWYVDGVEVHNAKTKPPEEQYNSTLRVVSVLTVLHQDWLNGKEYKCKVSNKALPAPIEKTISKAKGQPREPQVYTLPPSREEMTKNQVSLTCLVKGFYPSDIAVEWESNGQPENNYKTTPLVLDSDGSFFLYSKLTVDKSRWQQGNVFSCSVMHEALHNHYTQKSLSLSPGK light: DIVMTQSPSSLTVTAGEKVTMSCKSSQSLLNSGNQKNYLTWYQQKPGQPPKLLIYWASTRESGVPDRFTGSGSGTDFTLTISSVQAEDLAIYYCQNNYFYPLTFGAGTRLELKRTVAAPSVFIFPPSDEQLKSGTASVVCLLNNFYPREAKVQWKVDNALQSGNSQESVTEQDSKDSTYSLSSTLTLSKADYEKHKVYACEVTHQGLSSPVTKSFNRGEC	74.6	17.6	65.2	14.9
		~1			no binding (tested: about 30 ug/ml)					YL-G1-19-01 (antibody, human IgG1, kappa, V domains shown, also called chimeric antibody with the variable region of one of the mouse mAbs) VH: QVQLQQSGAELVRPGTSVKVSCKASGYAFTNYLIEWVKQRPGQGLEWIGVINPGSGGTNYNEKFKGKATLTADKSSNTAYMQLSSLTSEDSAVYFCARVYYGNSFGYWGQGTLVTVSA VL: DIVMTQSPSSLTVTAGEKVTMSCKSSQSLLNSGNQKNYLTWYQQKPGQPPKLLIYWASTRESGVPDRFTGSGSGTDFTLTISSVQAEDLAVYYCQNEYFYPFTFGSGTKLEIKR				
